Target: T1, H2-Q7 (QA2), GPI-anchored MHC class Ib molecule on murine T cells (mouse, UniProt P14429 22-334; P01887 21-119)
T1 construct: whole, on cells; also called H2-Q7/MHC-I
T1 sequence (MHC heavy, looked up): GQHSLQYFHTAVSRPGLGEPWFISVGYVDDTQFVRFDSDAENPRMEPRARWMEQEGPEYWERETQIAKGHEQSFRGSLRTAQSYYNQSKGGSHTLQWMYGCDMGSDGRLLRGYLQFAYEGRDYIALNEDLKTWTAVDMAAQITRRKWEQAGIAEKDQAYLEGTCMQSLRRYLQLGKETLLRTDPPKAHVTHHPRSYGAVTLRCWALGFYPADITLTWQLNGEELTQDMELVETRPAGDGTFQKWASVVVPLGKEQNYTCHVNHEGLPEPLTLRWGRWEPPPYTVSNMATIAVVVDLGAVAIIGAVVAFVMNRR
T1 sequence (b2m, looked up): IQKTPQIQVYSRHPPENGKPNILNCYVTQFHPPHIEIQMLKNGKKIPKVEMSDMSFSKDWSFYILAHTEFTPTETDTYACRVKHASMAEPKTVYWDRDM
Assay: qPCR of surface-bound viral genomes on C57BL/6J T cells, 1 hr at 4 C, with against without PI-PLC pre-treatment

B1: Ark313 AAV capsid (AAV6 capsid variant with 454-VVNPAEG-460) (other)
chain: MAADGYLPDWLEDNLSEGIREWWDLKPGAPKPKANQQKQDDGRGLVLPGYKYLGPFNGLDKGEPVNAADAAALEHDKAYDQQLKAGDNPYLRYNHADAEFQERLQEDTSFGGNLGRAVFQAKKRVLEPFGLVEEGAKTAPGKKRPVEQSPQEPDSSSGIGKTGQQPAKKRLNFGQTGDSESVPDPQPLGEPPATPAAVGPTTMASGGGAPMADNNEGADGVGNASGNWHCDSTWLGDRVITTSTRTWALPTYNNHLYKQISSASTGASNDNHYFGYSTPWGYFDFNRFHCHFSPRDWQRLINNNWGFRPKRLNFKLFNIQVKEVTTNDGVTTIANNLTSTVQVFSDSEYQLPYVLGSAHQGCLPPFPADVFMIPQYGYLTLNNGSQAVGRSSFYCLEYFPSQMLRTGNNFTFSYTFEDVPFHSSYAHSQSLDRLMNPLIDQYLYYLNRTQNQSVVNPAEGLLFSRGSPAGMSVQPKNWLPGPCYRQQRVSKTKTDNNNSNFTWTGASKYNLNGRESIINPGTAMASHKDDKDKFFPMSGVMIFGKESAGASNTALDNVMITDEEEIKATNPVATERFGTVAVNLQSSSTDPATGDVHVMGALPGMVWQDRDVYLQGPIWAKIPHTDGHFHPSPLMGGFGLKHPPPQILIKNTPVPANPPAEFSATKFASFITQYSTGQVSVEIEWELQKENSKRWNPEVQYTSNYAKSANVDFTVDNNGLYTEPRPIGTRYLTRPL
- fold reduction in bound virus per cell after PI-PLC treatment (GPI cleavage): ~10 fold
